Publication PMC12548936, “Microfluidic‐Assisted Evolution of a Robust NAD^+‐Dependent Enzyme with Improved Isobutanol Tolerance at Elevated Temperatures” (Chemsuschem, 2025)
Residue numbers refer to the chain shown, from its start. Numbers in names are those of the source.

Tests used:
purified protein = substrate: O=C[C@H](O)CO; test: purified protein; conditions: co-substrate 5 mM NAD+, 100 mM HEPES
[1] = substrate: NC(=O)c1ccc[n+]([C@@H]2O[C@H](COP(=O)(O)OP(=O)(O)OC[C@H]3O[C@@H](n4cnc5c(N)ncnc54)[C@H](O)[C@@H]3O)[C@@H](O)[C@H]2O)c1; test: photometric ALDH activity assay, Michaelis-Menten fit; type: biochemical, Herbaspirillum seropedicae; conditions: co-substrate 5 mM D-glyceraldehyde, 100 mM HEPES, varied: cofactor
[2] = wild type, Chis tag, pH 7.5, 30 °C, 30.0 °C
[3] = FIN5, GS-linker Nhis tag, pH 7.5, 50 °C, 50.0 °C
[4] = FIN4, GS-linker Nhis tag, pH 7.5, 50 °C, 50.0 °C
[5] = FIN4, GS-linker Nhis tag, pH 7.5, 50 °C
[6] = FIN3, GS-linker Nhis tag, pH 7.5, 50 °C, 50.0 °C
[7] = FIN3, GS-linker Nhis tag, pH 7.5, 50 °C
[8] = StEP template, GS-linker Nhis tag, pH 7.5, 50 °C, 50.0 °C
[9] = StEP template, GS-linker Nhis tag, pH 7.5, 50 °C

B1: HsALDH (HsALDH_Chis; NAD+-dependent aldehyde dehydrogenase / glyceraldehyde dehydrogenase GADH) (Herbaspirillum seropedicae SmR1) (protein)
chain: MYKDVQLFINGEWTASASGRTIDVINPATEEVIGKIAHADRADLDRALEAASKGFETWRNMSAFERSKIMRRAADLLRERAEEVARLMTMEQGKPLAEAKMETLGAADTIDWFAEEARRTYGRLVPARVPGAYQMVIKEPVGPVAAFTPWNFPLNQVVRKLSAALAAGCSIIVKAPEETPASPAELIRAYADAGVPAGVINLVYGVPAEISEYLIPHPVIKKISFTGSTPVGKQLAALAGQHMKRATMELGGHAPAMVFDDADVDVAAKMLATAKFRNAGQVCVSPTRFLVQKGVFNAFVDKFVTYAEQLKVGNGLEAGITMGPVANKRRIPALEALIDDAVSQGAQLRTGGKRIGNKGYFFQPTVLTNLPLQARAMNEEPFGPLALINSFETLDEVITEANRLPYGLAAYAFAKSAHTKHALAARVESGMLTINHLGLALPELPFGGIKDSGYGSEGGTEAIEAYINTKLVTQLDV
notes: recombinant, E. coli BL21(DE3); wild type with C-terminal His tag (Chis); models show dimerizing chains
With B1 the Km (purified protein; [2]) was 13000 ± 400 µM, the kcat (purified protein; [2]) was 68.6 ± 0.8 s⁻¹ and the Km ([1]; wild type, Chis tag, pH 7.5, 30 °C) was 590 µM.

B2: HsALDH (HsALDH_Chis; NAD+-dependent aldehyde dehydrogenase / glyceraldehyde dehydrogenase GADH) (Herbaspirillum seropedicae SmR1; … (protein)
chain: B1 chain with I36V, F147L, V158A, K221R, V284I, L432M
notes: as for B1
B2 showed a Km (purified protein; [3]) of 3500 ± 500 µM, a kcat (purified protein; [3]) of 54.8 ± 1.9 s⁻¹ and a Km ([1]; FIN5, GS-linker Nhis tag, pH 7.5, 50 °C) of 340 µM.

B3: HsALDH (HsALDH_Chis; NAD+-dependent aldehyde dehydrogenase / glyceraldehyde dehydrogenase GADH) (Herbaspirillum seropedicae SmR1; F147L/I36V/K221R/L432M/V284I) (protein)
chain: B1 chain with I36V, F147L, K221R, V284I, L432M
notes: as for B1
With B3 the Km (purified protein; [4]) was 7200 ± 800 µM, the kcat (purified protein; [4]) was 46.6 ± 1.4 s⁻¹ and the Km [1, 5] was 500 ± 60 µM. It also gave a kcat [1, 5] of 46.6 ± 1.4 s⁻¹.

B4: HsALDH (HsALDH_Chis; NAD+-dependent aldehyde dehydrogenase / glyceraldehyde dehydrogenase GADH) (Herbaspirillum seropedicae SmR1; F147L/I36V/K221R/V158A/V284I) (protein)
chain: B1 chain with I36V, F147L, V158A, K221R, V284I
notes: as for B1
B4 showed a Km (purified protein; [6]) of 3300 ± 400 µM, a kcat (purified protein; [6]) of 46.9 ± 1.3 s⁻¹ and a Km [1, 7] of 420 ± 20 µM. The kcat [1, 7] was 46.9 ± 1.3 s⁻¹.

B5: HsALDH (HsALDH_Chis; NAD+-dependent aldehyde dehydrogenase / glyceraldehyde dehydrogenase GADH) (Herbaspirillum seropedicae SmR1; F147L/I36V/V284I) (protein)
chain: B1 chain with I36V, F147L, V284I
notes: as for B1
B5 gave a Km (purified protein; [8]) of 12700 ± 1200 µM, a kcat (purified protein; [8]) of 66.1 ± 2.0 s⁻¹ and a Km [1, 9] of 510 ± 30 µM. For the same protein, the kcat [1, 9] was 66.1 ± 2.0 s⁻¹.
